# B1: N356-5 (peptide)
# peptide: ELREKLEAWFELFAEFFARFK
# B2: N356-1 (peptide)
# peptide: ELREKLEAWFEAFEEFFARFKS
# B3: N356-4 (peptide)
# peptide: ELREKLEAWFELFAEFFARFKS
# B4: N356-7 (peptide)
# peptide: ELRAKLEAWFEAFAEFFARF
# B5: N356-6 (peptide)
# peptide: ELREKLEAWFELFAEFFARF
# B6: N965-3 (peptide)
# peptide: EVREKLEAWFELFREFAERFLS
# B7: N965-1 (peptide)
# peptide: EVREKLEAWFEAFREFAERFKS
# B8: N965-6 (peptide)
# peptide: EVREKLEAWFELFREFLERFL
# B9: N965-7 (peptide)
# peptide: EVREKLEAWFELFREFLERF
# B10: N965-9 (peptide)
# peptide: ELREKLEAWRELFEEFFARFLS
# B11: N965-4 (peptide)
# peptide: EVREKLEAWFELFREFLERFKS
# B12: N965-2 (peptide)
# peptide: EVREKLEAWFELFREFAERFKS
# B13: N965-5 (peptide)
# peptide: EVREKLEAWFELFREFLERFLS
# Target: T1, ATP-binding cassette transporter A1 (ABCA1) (UniProt P41233 1-2261, limits assumed)
# Assay: cell-based or functional assay
# T1 sequence (P41233 whole entry): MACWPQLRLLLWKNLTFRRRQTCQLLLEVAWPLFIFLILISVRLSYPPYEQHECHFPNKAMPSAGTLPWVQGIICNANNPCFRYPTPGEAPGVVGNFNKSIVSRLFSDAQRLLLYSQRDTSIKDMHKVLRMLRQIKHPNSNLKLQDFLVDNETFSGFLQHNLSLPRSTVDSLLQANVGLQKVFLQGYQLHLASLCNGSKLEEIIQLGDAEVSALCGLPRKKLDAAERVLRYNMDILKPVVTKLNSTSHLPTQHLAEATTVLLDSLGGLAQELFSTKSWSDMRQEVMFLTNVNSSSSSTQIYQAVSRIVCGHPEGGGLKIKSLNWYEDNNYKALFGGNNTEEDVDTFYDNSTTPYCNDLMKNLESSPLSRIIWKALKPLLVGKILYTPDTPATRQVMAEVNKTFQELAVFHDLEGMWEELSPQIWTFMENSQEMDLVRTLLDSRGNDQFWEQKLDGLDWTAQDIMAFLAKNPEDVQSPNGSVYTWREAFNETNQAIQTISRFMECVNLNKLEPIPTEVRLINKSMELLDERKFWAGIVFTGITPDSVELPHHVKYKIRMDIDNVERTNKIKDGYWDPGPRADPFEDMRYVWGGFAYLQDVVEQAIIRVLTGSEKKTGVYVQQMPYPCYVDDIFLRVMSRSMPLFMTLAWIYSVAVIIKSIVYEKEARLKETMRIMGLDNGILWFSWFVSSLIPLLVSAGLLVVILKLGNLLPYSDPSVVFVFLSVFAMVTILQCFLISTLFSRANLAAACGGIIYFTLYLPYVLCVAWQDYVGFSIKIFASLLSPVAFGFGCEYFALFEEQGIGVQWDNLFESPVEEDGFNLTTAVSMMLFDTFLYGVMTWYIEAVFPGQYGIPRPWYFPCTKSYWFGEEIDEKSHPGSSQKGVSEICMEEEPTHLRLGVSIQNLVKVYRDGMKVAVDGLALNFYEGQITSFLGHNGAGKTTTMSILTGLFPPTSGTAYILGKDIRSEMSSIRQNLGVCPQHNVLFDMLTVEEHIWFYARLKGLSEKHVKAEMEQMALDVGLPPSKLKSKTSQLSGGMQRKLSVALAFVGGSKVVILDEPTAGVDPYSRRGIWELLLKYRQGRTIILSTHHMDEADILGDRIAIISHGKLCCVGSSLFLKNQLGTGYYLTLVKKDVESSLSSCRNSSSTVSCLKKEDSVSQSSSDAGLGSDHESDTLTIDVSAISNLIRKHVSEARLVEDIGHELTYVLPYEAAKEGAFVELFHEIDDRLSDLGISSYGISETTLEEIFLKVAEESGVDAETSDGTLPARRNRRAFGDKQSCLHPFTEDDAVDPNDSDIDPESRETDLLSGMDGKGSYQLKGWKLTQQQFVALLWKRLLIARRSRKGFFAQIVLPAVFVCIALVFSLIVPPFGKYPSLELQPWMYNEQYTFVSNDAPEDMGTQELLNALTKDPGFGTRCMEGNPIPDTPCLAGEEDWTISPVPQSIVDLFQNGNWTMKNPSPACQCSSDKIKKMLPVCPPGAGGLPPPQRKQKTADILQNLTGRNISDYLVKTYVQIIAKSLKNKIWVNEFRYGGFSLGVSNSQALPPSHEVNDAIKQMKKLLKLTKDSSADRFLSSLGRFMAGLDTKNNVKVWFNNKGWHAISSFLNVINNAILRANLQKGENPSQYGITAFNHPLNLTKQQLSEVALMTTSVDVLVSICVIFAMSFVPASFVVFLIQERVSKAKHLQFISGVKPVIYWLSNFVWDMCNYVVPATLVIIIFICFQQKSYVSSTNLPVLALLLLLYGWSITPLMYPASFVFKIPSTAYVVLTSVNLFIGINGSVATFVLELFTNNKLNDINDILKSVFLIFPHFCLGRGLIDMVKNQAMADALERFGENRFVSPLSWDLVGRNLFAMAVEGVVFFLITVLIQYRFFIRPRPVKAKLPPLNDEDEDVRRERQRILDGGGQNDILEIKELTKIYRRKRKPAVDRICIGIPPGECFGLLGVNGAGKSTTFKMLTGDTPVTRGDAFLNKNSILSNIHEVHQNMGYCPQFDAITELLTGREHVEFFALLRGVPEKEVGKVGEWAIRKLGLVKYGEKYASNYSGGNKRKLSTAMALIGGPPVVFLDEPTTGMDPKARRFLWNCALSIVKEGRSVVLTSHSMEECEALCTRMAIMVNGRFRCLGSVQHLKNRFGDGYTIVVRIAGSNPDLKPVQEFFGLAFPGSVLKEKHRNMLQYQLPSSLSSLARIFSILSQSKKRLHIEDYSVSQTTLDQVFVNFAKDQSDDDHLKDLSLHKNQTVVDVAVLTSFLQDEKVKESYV
Binder,"% cholesterol efflux/8 hours, No cAMP [%]","% cholesterol efflux/8 hours, Plus cAMP [%]"
B1,2.18,5.97
B2,0.86,4.16
B3,1.72,4.25
B4,2.78,7
B5,2.09,4.04

# Target: T1, ATP-binding cassette transporter A1 …
# Assay: cell-based or functional assay
# Remark: another data set of the same source
Binder,% cholesterol efflux/4 hours at 0.1 µg/ml [%],% cholesterol efflux/4 hours at 0.3 µg/ml [%],% cholesterol efflux/4 hours at 1.0 µg/ml [%],% cholesterol efflux/4 hours at 3.0 µg/ml [%],% cholesterol efflux/4 hours at 10 µg/ml [%],% cholesterol efflux/4 hours at 30 µg/ml [%]
B1,0.02,0.31,1.59,4.27,3.86,3.2
B2,0,0,0.23,4.71,5.61,3.5
B3,0.14,0.61,1.89,5.68,6.06,6.52
B4,0.15,0.23,1.17,4.99,5.49,5.66
B5,0.01,0.23,0.67,4.07,3.78,3.91

# Target: T1, ATP-binding cassette transporter A1 …
# Assay: cell-based or functional assay
# Remark: another data set of the same source
Binder,"% cholesterol efflux/8 hours, +cAMP [%]","% cholesterol efflux/8 hours, -cAMP [%]"
B6,3.85,1.45
B7,9.9,1.75
B8,6.18,3.15
B9,4.03,1.5
B10,2.94,1.06
B11,4.76,1.52
B12,6.97,1.28
B13,5.52,2.91

# Target: T1, ATP-binding cassette transporter A1 …
# Assay: cell-based or functional assay
# Remark: another data set of the same source
Binder,% cholesterol efflux/4 hours at 0.1 µg/ml [%],% cholesterol efflux/4 hours at 0.3 µg/ml [%],% cholesterol efflux/4 hours at 1.0 µg/ml [%],% cholesterol efflux/4 hours at 3.0 µg/ml [%],% cholesterol efflux/4 hours at 10 µg/ml [%],% cholesterol efflux/4 hours at 30 µg/ml [%]
B6,0.23,0.47,1.06,3.48,3.05,2.53
B7,0,0.13,0,0.44,2.9,6.01
B8,0.11,0.49,1.59,1.98,2.22,2.75
B9,0.03,0.3,1.39,4.94,3.65,2.66
B10,0.03,0.41,0.72,2.45,1.77,1.41
B11,0.29,0.67,2.7,4.72,4,2.94
B12,0,0.13,0.01,2.23,5.96,3.98
B13,0.12,0.9,2.13,4.89,4.06,3.82

# From patent US20110190196A1 (University of California, published 2011)
